US20250387450A1 (AIKIUM, published 2025)
Positions count from the first letter of the chain named.

T1: GMERKFMSLQPSISVSEMEPNGTFSNNNSRNCTIENFKREFFP (biotinylated, position not given)
T1 construct: also called CYSLTR2 (longer peptide of the disordered region)
T1 peptide: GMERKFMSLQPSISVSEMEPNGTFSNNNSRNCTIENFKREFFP

T2: CYSLTR2 short linear epitope peptide, SISVSEMEPNGTFSNNNSRNC (N-terminal biotin)
T2 peptide: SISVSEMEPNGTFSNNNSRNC

T3: TNFRSF13B disordered region peptide, LPPELRRQRSGEVENNSDNSGRYQ (biotin label)
T3 construct: also called TNFRSF13B Peptide
T3 peptide: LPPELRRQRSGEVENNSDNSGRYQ

T4: KAAG1 disordered region peptide, PGAAAAHLPRWPPPQLAASRREA (biotin label)
T4 construct: also called KAAG1 Peptide
T4 peptide: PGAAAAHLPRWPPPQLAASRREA

T5: KCNA6 short linear epitope peptide, QQQEQQPASGGGGQNGQQAMS (biotin label)
T5 construct: also called KCNA6 Peptide
T5 peptide: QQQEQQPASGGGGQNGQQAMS

T6: CD40LG short linear epitope peptide, NKEETKKENSFEMQKGDQNPQIAAH (biotin label)
T6 construct: also called CD40LG Peptide
T6 peptide: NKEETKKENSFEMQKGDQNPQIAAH

T7: CD74 disordered region peptide (CLIP), PPKPVSKMRMATPLLMQALPMGALP (biotin label)
T7 construct: also called CD74 Peptide
T7 peptide: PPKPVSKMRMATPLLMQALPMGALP

T8: Urotensin-2 receptor N-terminal peptide, MALTPESPSSFPGLAATGSSVPEPPGGPNATLNSSWASPTEPSSLEDLVATGTI (biotin label)
T8 construct: also called Urotensin IIR; GPCR2 (Urotensin II)
T8 peptide: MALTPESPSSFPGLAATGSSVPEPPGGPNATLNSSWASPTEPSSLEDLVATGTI

T9: CYSLTR2 N-terminal disordered region peptide, MERKFMSLQPSISVSEMEPNGTFSNNNSRNCTIENFKREFFP (biotin label)
T9 construct: also called CysLT2; CysLT2r
T9 peptide: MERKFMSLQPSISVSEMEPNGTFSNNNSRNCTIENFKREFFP

B1: S180 (designed binder)
single chain: MKEEHVIIQAEFYLNPDQSGEFMFDFDGDEIFHVDMAKKETVWRLEEFGRFASFEAQGALANIAVDKANLEIMTKRSNYTPITNTRPRFLWQPKRECHFFNGTERVRFLDRYFYNQEESVRFDSDVGEFRAVTELGRPDAEYWNSQKDILEQARAAVDTYCRHNYGVVESFTVQRRVQGGSHHHHHHLE
notes: also called engineered scaffold protein S180
B2: S189 (designed binder)
single chain: MGIKEEHVINQAEYCLNPDQSGEFKFDFDGDEIFHVDMAKKETVWRLEEFGRFASFEAQGALAHIAVDCANLEIMTKRSNYTPMGDTRPRFLWQLKYECHFFNGTERVRLNERCIYNQEESVRFDSDVGEYRAVTELGRPDAEQWNSQKDHLEQRRAAVDTKCRHNYGVGESFTVQGGSHHHHHH
notes: also called engineered scaffold protein S189
B3: engineered scaffold protein S193 (designed binder)
chain: MGSKARMATGALAQAGGSGGSMIKEEHVINQAEYYLNPDQSGEFKFDFDGDEIFHVDMAKKETVWRLEEFGRFASFEAQGALAHIAVDKANLEIMTKRSNYTPMGDTRPRFLWQLKYECHFFNGTERVRLNERCIYNQEESVRFDSDVGEYRAVTELGRPDAEQWNSQKDHLEQRRAAVDTKCRHNYGVGESFTVQGGSHHHHHH
B4: engineered scaffold protein S058 (designed binder)
chain: GSHSMRYNYTSVSRPGRGEPRFISEGYVDDTQFVRFDSDAASPREEPRAPWIEQEGPEYWDRNTQIYKAQAQTDRESLRNLRGYYNQSEAGSHTLQSMYGCDVGPDGRLLRGHDQYYYDGKDYISLNEDLRSWTAADTAAQITQRKWEAAREAEQRRAYLEGECVEWLRRYLENGKDKLERADGGSHHHHHHLE
B5: engineered scaffold protein S065 (designed binder)
chain: B4 chain with N8F, E25V, Y59A, Y117A, Y123S, S125A, K146Y, W167H, Y171V
B6: engineered scaffold protein S098 (designed binder)
chain: PENYLFQGRQECNGTQFLERYIYNREEFVRFDEFRAVGRPDEEYWNSQKDILEEERAVPDRMCRHNYELGGPMTLQRRVQPRVNIKADHVSTYAAFVQRPFMFEFDEDEMFYVDLHLEEFGQAFSFEAQGGLANIAILNNNLNTRSNHTQATNDPPHHHHHHLE
B7: engineered scaffold protein S068 (designed binder)
chain: GDTRPRFLWQLKFECHFFNGTERVRLLERCIYNQEESVRFDSDVGEYRAVTELGRPDAEYWNSQKDLLEQRRAAVDTYCRHNYGVGESFTVQRRVEPKVTVYPSKTQPLQHHNLLVCSVSGFYPGSIEVRWFRNGQEEKAGVVSTGLIQNGDWTFQTLVMLETVPRSGEVYTCQVEHPSVTSPLTVEWRASGGGGSGGGGSGGGGIKEEHVIIQAEFYLNPDQSGEFMFDFDGDEIFHVDMAKKETVWRLEEFGRFASFEAQGALANIAVDKANLEIMTKRSNYTPITNVPPEVTVLTNSPVELREPNVLICFIDKFTPPVVNVTWLRNGKPVTTGVSETVFLPREDHLFRKFHYLPFLPSTEDVYDCRVEHWGLDEPLLKHWEFDAPSGGSHHHHHHLE
B8: engineered scaffold protein S077 (designed binder)
chain: KPVSKMRMATPLLMQALPMASGGGGSGGGGDTRPRFLWQLKFECHFFNGTERVRLLERCIYNQEESVRFDSDVGEYRAVTELGRPDAEYWNSQKDLLEQRRAAVDTYCRHNYGVGESFTVQRRSGGGIKEEHVIIQAEFYLNPDQSGEFMFDFDGDEIFHVDMAKKETVWRLEEFGRFASFEAQGALANIAVDKANLEIMTKRSNYTGGSHHHHHHLE
B9: engineered scaffold protein S078 (designed binder)
chain: GDTRPRFLWQLKFECHFFNGTERVRLLERCIYNQEESVRFDSDVGEYRAVTELGRPDAEYWNSQKDLLEQRRAAVDTYCRHNYGVGESFTVQRRSGGGIKEEHVIIQAEFYLNPDQSGEFMFDFDGDEIFHVDMAKKETVWRLEEFGRFASFEAQGALANIAVDKANLEIMTKRSNYTGGSHHHHHHLE
B10: engineered scaffold protein S134 (designed binder)
chain: MVKYHHHHHHGGSENLYFQGMGDTRPRFLWQPKRECHFFNGTERVRFLDRYFYNQEESVRFDSDVGEFRAVTELGRPDAEYWNSQKDILEQARAAVDTYCRHNYGVVESFTVQRRVIKEEHVIIQAEFYLNPDQSGEFMFDFDGDEIFHVDMAKKETVWRLEEFGRFASFEAQGALANIAVDKANLEIMTKRSNYTPITN
B11: engineered scaffold protein S143 (designed binder)
chain: MGDTRPRFLWQLKFECHFFNGTERVRLLERCIYNQEESVRFDSDVGEYRAVTELGRPDAEYWNSQKDLLEQRRAAVDTYCRHNYGVGESFTVQRRVIKEEHVIIQAEFYLNPDQSGEFMFDFDGDEIFHVDMAKKETVWRLEEFGRFASFEAQGALANIAVDKANLEIMTKRSNYTPTINGGSHHHHHH

Key:
[1] = target: T1, GMERKFMSLQPSISVSEMEPNGTFSNNNSRNCTIENFKRE …; test: ELISA: scaffold coated on plate, biotinylated peptide titrated, streptavidin-HRP fluorescence
Procedure: (§1) Binder proteins were coated on the surface of a high binding capacity 96 well plate by incubating 100 μL of protein at 5 μg/mL in a coating solution (10 mM Tris pH 8.8, 50 mM NaCl), overnight at 4 C. The next morning, the coating solution was aspirated out and wells were washed once with 300 μL ELISA wash buffer (1×PBS, 0.05% Tween-20) and solution was aspirated out. The wells were blocked with 200 μL of a blocking buffer (1×PBS, 0.05% Tween-20, 3% BSA) at room temperature for 1 hour. After one hour, the blocking solution was aspirated out and 100 μL of biotinylated polypeptide in a binding buffer (1×PBS, 0.05% Tween-20, 0.5% BSA) at various concentrations was added to the appropriate well and incubated for 20 minutes. Peptide solution was aspirated out after 20 minutes and wells were washed 5 times with 300 μL of ELISA wash buffer. To detect the biotinylated peptide, 100 μL of streptavidin-HRP (50 ng/ml) was added to each well and incubated for 1 hour. The wells were subsequently washed 5 times with 300 μL of ELISA wash buffer. 100 μL of QuantaBlu Fluorogenic Peroxidase substrate solution was added to each well, incubated for 30 minutes and reaction stopped by adding 100 μL of stop solution. Fluorescent signal from each well was measured using a Biotek Cytation5 plate reader by exciting the fluorophore at […] and measuring emission at 420 nm. Fluorescent signals were plotted as a function of polypeptide concentration.

[2] = target: T2, CYSLTR2 short linear epitope peptide, …; test: as above
Procedure: as §1

[3] = target: T3, TNFRSF13B disordered region peptide, …; test: as above
Procedure: as §1

[4] = target: T4, KAAG1 disordered region peptide, …; test: as above
Procedure: as §1

[5] = target: T5, KCNA6 short linear epitope peptide, …; test: as above
Procedure: as §1

[6] = target: T6, CD40LG short linear epitope peptide, …; test: as above
Procedure: as §1

[7] = target: T7, CD74 disordered region peptide (CLIP), …; test: modified sandwich ELISA, fluorescence grade by the table's key
Procedure: as §1

[8] = target: T8, Urotensin-2 receptor N-terminal …; test: modified sandwich ELISA, grade by the table's key
Procedure: as §1

[9] = target: T3, TNFRSF13B disordered region peptide, …; test: modified sandwich ELISA, grade by the table's key
Procedure: as §1

[10] = target: T9, CYSLTR2 N-terminal disordered region …; test: modified sandwich ELISA, fluorescence grade by the table's key
Procedure: as §1

[11] = target: T4, KAAG1 disordered region peptide, …; test: modified sandwich ELISA, grade by the table's key
Procedure: as §1

| Binder | fluorescent signal [7] [fluorescentsignal] | binding result [8] | binding result [9] | binding result [11] | further results |
| --- | --- | --- | --- | --- | --- |
| B1 | – | – | – | – | binding result [1]: binds; binding result [2]: binds |
| B2 | – | – | – | – | binding result [1]: binds; binding result [2]: binds |
| B3 | – | – | – | – | binding result [1]: binds; binding result [3]: no binding (tested: 10000 nM); binding result [4]: no binding (tested: 10000 nM); binding result [5]: no binding (tested: 10000 nM); binding result [6]: no binding (tested: 10000 nM); binding result [2]: binds |
| B4 | > 400000 | no binding (tested: <5000 (fluorescence, key)) | – | – | – |
| B5 | > 400000 | no binding (tested: <5000 (fluorescence, key)) | no binding (tested: <5000 (fluorescence, key)) | – | binding result [4]: no binding (tested: 10000 nM) |
| B6 | > 400000 | no binding (tested: <5000 (fluorescence, key)) | no binding (tested: <5000 (fluorescence, key)) | no binding (tested: <5000 (fluorescence, key)) | fluorescent signal [10]: 100000 to 250000 fluorescentsignal |
| B7 | > 400000 | no binding (tested: <5000 (fluorescence, key)) | no binding (tested: <5000 (fluorescence, key)) | no binding (tested: <5000 (fluorescence, key)) | – |
| B8 | > 400000 | no binding (tested: <5000 (fluorescence, key)) | no binding (tested: <5000 (fluorescence, key)) | no binding (tested: <5000 (fluorescence, key)) | fluorescent signal [10]: 100000 to 250000 fluorescentsignal |
| B9 | > 400000 | no binding (tested: <5000 (fluorescence, key)) | no binding (tested: <5000 (fluorescence, key)) | no binding (tested: <5000 (fluorescence, key)) | fluorescent signal [10]: 50000 to 100000 fluorescentsignal |
| B10 | 100000 to 250000 | – | – | no binding (tested: <5000 (fluorescence, key)) | – |
| B11 | > 400000 | – | – | no binding (tested: <5000 (fluorescence, key)) | – |
